IntAct's records for PubMed 31515488

B1: Keratin, type II cytoskeletal 79 (Homo sapiens), Q5XKE5 (parent)
chain: MRSSVSRQTYSTKGGFSSNSASGGSGSQARTSFSSVTVSRSSGSGGGAHCGPGTGGFGSRSLYNLGGHKSISVSVAGGALLGRALGGFGFGSRAFMGQGAGRQTFGPACPPGGIQEVTVNQSLLTPLHVEIDPEIQRVRTQEREQIKTLNNKFASFIDKVRFLEQQNKVLETKWALLQEQGQNLGVTRNNLEPLFEAYLGSMRSTLDRLQSERGRLDSELRNVQDLVEDFKNKYEDEINKHTAAENEFVVLKKDVDAAYMGRMDLHGKVGTLTQEIDFLQQLYEMELSQVQTHVSNTNVVLSMDNNRNLDLDSIIAEVKAQYELIAQRSRAEAEAWYQTKYEELQVTAGKHGDNLRDTKNEIAELTRTIQRLQGEADAAKKQCQQLQTAIAEAEQRGELALKDAQKKLGDLDVALHQAKEDLTRLLRDYQELMNVKLALDVEIATYRKLLESEESRMSGECPSAVSISVTGNSTTVCGGGAASFGGGISLGGSGGATKGGFSTNVGYSTVKGGPVSAGTSILRKTTTVKTSSQRY
B2: Histone-lysine N-methyltransferase SMYD1 (Homo sapiens), Q8NB12 (parent)
chain: MTIGRMENVEVFTAEGKGRGLKATKEFWAADIIFAERAYSAVVFDSLVNFVCHTCFKRQEKLHRCGQCKFAHYCDRTCQKDAWLNHKNECSAIKRYGKVPNENIRLAARIMWRVEREGTGLTEGCLVSVDDLQNHVEHFGEEEQKDLRVDVDTFLQYWPPQSQQFSMQYISHIFGVINCNGFTLSDQRGLQAVGVGIFPNLGLVNHDCWPNCTVIFNNGNHEAVKSMFHTQMRIELRALGKISEGEELTVSYIDFLNVSEERKRQLKKQYYFDCTCEHCQKKLKDDLFLGVKDNPKPSQEVVKEMIQFSKDTLEKIDKARSEGLYHEVVKLCRECLEKQEPVFADTNIYMLRMLSIVSEVLSYLQAFEEASFYARRMVDGYMKLYHPNNAQLGMAVMRAGLTNWHAGNIEVGHGMICKAYAILLVTHGPSHPITKDLEAMRVQTEMELRMFRQNEFMYYKMREAALNNQPMQVMAEPSNEPSPALFHKKQ
partner: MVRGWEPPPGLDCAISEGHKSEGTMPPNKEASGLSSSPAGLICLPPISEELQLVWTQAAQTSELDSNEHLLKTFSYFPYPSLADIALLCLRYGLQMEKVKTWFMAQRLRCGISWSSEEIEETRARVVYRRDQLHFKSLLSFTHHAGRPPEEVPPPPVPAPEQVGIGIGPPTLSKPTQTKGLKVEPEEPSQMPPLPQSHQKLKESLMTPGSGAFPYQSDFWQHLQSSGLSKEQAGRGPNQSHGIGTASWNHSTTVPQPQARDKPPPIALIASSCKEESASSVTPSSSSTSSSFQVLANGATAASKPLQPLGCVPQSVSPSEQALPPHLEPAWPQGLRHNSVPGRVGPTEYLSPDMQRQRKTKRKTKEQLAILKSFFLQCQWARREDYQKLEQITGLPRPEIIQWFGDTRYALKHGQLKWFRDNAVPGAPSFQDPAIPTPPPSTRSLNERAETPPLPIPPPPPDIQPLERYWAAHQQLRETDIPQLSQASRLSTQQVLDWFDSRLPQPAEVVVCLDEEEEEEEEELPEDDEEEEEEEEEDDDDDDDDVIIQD
B3: Ribonuclease P protein subunit p25-like protein (Homo sapiens), Q8N5L8 (parent)
chain: MEHYRKAGSVELPAPSPMPQLPPDTLEMRVRDGSKIRNLLGLALGRLEGGSARHVVFSGSGRAAGKAVSCAEIVKRRVPGLHQLTKLRFLQTEDSWVPASPDTGLDPLTVRRHVPAVWVLLSRDPLDPNECGYQPPGAPPGLGSMPSSSCGPRSRRRARDTRS
partner: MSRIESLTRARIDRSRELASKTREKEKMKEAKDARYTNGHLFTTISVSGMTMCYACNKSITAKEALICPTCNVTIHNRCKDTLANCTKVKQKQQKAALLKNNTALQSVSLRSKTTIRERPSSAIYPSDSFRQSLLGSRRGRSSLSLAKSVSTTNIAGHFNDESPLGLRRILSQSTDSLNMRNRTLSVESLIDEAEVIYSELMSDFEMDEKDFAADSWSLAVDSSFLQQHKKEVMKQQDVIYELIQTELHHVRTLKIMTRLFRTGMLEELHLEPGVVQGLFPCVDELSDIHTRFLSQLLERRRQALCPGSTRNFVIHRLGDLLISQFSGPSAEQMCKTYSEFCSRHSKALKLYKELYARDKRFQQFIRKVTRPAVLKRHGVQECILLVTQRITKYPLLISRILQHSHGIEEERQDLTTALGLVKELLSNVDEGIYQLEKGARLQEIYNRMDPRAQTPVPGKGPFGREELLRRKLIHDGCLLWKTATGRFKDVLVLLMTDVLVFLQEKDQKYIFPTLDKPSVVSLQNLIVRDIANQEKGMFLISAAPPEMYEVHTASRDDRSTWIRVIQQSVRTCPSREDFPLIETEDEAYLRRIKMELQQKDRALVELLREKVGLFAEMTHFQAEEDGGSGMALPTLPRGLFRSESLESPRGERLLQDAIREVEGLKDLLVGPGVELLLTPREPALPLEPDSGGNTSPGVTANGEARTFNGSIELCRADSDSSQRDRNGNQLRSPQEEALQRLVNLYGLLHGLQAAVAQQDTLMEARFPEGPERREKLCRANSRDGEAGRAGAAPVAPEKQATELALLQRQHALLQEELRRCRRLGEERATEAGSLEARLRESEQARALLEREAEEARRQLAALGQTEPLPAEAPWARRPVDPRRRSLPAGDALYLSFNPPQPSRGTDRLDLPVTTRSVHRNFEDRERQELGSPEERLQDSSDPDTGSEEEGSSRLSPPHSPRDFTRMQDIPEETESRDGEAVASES
B4: E3 ubiquitin-protein ligase ARIH2 (Homo sapiens), O95376 (parent)
chain: MSVDMNSQGSDSNEEDYDPNCEEEEEEEEDDPGDIEDYYVGVASDVEQQGADAFDPEEYQFTCLTYKESEGALNEHMTSLASVLKVSHSVAKLILVNFHWQVSEILDRYKSNSAQLLVEARVQPNPSKHVPTSHPPHHCAVCMQFVRKENLLSLACQHQFCRSCWEQHCSVLVKDGVGVGVSCMAQDCPLRTPEDFVFPLLPNEELREKYRRYLFRDYVESHYQLQLCPGADCPMVIRVQEPRARRVQCNRCNEVFCFKCRQMYHAPTDCATIRKWLTKCADDSETANYISAHTKDCPKCNICIEKNGGCNHMQCSKCKHDFCWMCLGDWKTHGSEYYECSRYKENPDIVNQSQQAQAREALKKYLFYFERWENHNKSLQLEAQTYQRIHEKIQERVMNNLGTWIDWQYLQNAAKLLAKCRYTLQYTYPYAYYMESGPRKKLFEYQQAQLEAEIENLSWKVERADSYDRGDLENQMHIAEQRRRTLLKDFHDT
B5: Protein Dr1 (Homo sapiens), Q01658 (parent)
chain: MASSSGNDDDLTIPRAAINKMIKETLPNVRVANDARELVVNCCTEFIHLISSEANEICNKSEKKTISPEHVIQALESLGFGSYISEVKEVLQECKTVALKRRKASSRLENLGIPEEELLRQQQELFAKARQQQAELAQQEWLQMQQAAQQAQLAAASASASNQAGSSQDEEDDDDI

Variants of: B1
Settings: with KRT15, P19012
Chain of KRT15, P19012 (P19012 whole entry): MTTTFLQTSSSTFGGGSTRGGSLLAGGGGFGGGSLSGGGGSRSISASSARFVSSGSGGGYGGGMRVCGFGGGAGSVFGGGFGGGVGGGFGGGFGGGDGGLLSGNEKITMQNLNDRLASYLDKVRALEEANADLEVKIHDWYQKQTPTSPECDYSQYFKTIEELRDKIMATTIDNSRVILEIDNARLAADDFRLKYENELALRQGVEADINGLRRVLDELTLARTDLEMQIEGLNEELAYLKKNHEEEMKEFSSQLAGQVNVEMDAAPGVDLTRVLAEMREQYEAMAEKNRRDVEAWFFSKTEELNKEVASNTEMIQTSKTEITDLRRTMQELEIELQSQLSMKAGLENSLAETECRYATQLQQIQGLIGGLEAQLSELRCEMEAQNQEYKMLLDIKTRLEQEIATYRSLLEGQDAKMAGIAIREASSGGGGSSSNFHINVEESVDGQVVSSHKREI

| effect of a mutation on the interaction | Variant |
| --- | --- |
| with no effect | R213W |
| with no effect | R161Q |
| with no effect | D217Y |
| with no effect | G86E |

Variants of: B1
Settings: with kt33b_human KRT33B

| effect of a mutation on the interaction | Variant |
| --- | --- |
| with no effect | D217Y |

Variants of: B2
Settings: with homez_human HOMEZ

| effect of a mutation on the interaction | Variant |
| --- | --- |
| with no effect | R441W |

Variants of: B3
Settings: with arhg2_human ARHGEF2, Q92974

| effect of a mutation on the interaction | Variant |
| --- | --- |
| with no effect | D127N |
| with no effect | R155Q |

Variants of: B4
Settings: with ub2l6_human UBE2L6, O14933
Chain of ub2l6_human UBE2L6, O14933 (O14933 whole entry): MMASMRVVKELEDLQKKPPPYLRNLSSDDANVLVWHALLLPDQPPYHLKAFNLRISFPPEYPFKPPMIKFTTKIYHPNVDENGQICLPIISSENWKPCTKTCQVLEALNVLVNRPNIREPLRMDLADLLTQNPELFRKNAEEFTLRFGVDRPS

| effect of a mutation on the interaction | Variant |
| --- | --- |
| with no effect | E29D |

Variants of: B4
Settings: with bub1_human BUB1, O43683
Chain of bub1_human BUB1, O43683 (O43683 whole entry, looked up): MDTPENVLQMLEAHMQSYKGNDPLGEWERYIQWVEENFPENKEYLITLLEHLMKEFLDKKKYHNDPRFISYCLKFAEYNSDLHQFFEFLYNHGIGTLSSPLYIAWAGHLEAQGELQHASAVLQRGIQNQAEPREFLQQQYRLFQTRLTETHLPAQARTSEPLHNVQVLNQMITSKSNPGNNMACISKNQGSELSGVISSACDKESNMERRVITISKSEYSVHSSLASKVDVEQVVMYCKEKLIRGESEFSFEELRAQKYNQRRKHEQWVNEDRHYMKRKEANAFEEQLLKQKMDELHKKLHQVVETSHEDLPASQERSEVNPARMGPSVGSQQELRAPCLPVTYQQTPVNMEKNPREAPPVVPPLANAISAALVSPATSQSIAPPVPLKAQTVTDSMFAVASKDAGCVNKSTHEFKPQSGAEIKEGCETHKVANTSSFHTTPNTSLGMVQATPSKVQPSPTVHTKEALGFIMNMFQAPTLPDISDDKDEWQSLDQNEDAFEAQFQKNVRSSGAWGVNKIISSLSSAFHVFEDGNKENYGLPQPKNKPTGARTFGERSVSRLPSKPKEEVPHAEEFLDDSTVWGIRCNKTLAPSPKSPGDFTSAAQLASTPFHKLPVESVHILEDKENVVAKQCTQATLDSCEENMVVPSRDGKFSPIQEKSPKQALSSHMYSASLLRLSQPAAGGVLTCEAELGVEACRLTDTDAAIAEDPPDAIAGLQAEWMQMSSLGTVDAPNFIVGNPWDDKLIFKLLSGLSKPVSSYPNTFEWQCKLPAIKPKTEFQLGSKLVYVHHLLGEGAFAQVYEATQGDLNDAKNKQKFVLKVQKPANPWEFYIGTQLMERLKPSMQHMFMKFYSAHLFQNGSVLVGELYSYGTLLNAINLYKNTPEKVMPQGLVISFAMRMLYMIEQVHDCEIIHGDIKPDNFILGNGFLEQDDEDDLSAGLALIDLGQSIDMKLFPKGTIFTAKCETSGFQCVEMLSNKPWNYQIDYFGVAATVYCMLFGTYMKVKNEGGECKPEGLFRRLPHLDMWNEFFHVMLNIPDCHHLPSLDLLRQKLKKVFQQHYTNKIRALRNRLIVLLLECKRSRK

| effect of a mutation on the interaction | Variant |
| --- | --- |
| with no effect | E29D |

Variants of: B5
Settings: with dpoe3_human POLE3, Q9NRF9
Chain of dpoe3_human POLE3, Q9NRF9 (Q9NRF9 whole entry): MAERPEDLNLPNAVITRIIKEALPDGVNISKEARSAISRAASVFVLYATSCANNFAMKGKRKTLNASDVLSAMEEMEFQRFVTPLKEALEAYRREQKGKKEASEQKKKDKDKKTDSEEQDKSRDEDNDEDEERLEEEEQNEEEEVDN

| effect of a mutation on the interaction | Variant |
| --- | --- |
| with no effect | E171D |

Variants of: B5
Settings: with tbp_human TBP

| effect of a mutation on the interaction | Variant |
| --- | --- |
| with no effect | E171D |
